Laboratory results as given in US8372810B2, “Anti-tumor drug, medicament, composition, and use thereof” (Gene Signal International SA, priority 2007, dated 2013).
“And” between values parts separate entries of the source, which are not always exact repeats. Identical values can stand only once.

Key:
tumor cell line NCI-H460 = test: Proliferation of other cell lines: NCI-H460; format: cell-based, human; details: even at high concentration
HUVEC = test: In vitro angiogenesis of HUVEC induced by FGF2 and VEGF on Matrigel; format: cell-based, human
Procedure: The purified proteins 497C-T2, 497C-T3, 497C-T4 and 497C-T5 were tested in vitro on angiogenesis of HUVEC induced by FGF2 and VEGF on Matrigel.
24 wells plates were prepared with 250 μL of BD Matrigel™/well and then incubated 30 minutes in incubator.

CALU-6 tumors = test: CALU-6 non-small cell lung cancer xenograft in Swiss Nude mice, tumor growth; format: in vivo
Procedure: CALU-6 cells were cultured as adherent cells in complete EMEM medium (Ref. CM1MEM18-01, batch No. 462502, Eurobio, France) 10% fetal calf serum (FCS; Ref. CVFSVF00-01, batch No. 513021, Eurobio, France) under a 37° C., 5% CO2 humidified atmosphere. They were amplified in 75 cm^2-flasks to reach 90×10^6 cells.
At D0, CALU-6 cells (human lung carcinoma) were collected from 75 cm^2-flasks by removing the medium and adding 3 ml of trypsine-EDTA (Ref. CEZTDA00-0U, batch No. 633920, Eurobio, France). After 5 min of incubation at 37° C., cells had detached from the plastic and the enzymatic reaction was stopped by adding 3 ml of EMEM medium containing 10% fetal calf serum. Cells were then centrifuged at 700 g for 5 min at room temperature. They were resuspended in serum-free EMEM culture medium. Cells were counted and viability assessment by Trypan Blue exclusion (Ref. CSTCOL03-OU, batch No. 434511, Eurobio, France). The number of viable CALU-6 cells was >99%. The number of cells was then adjusted to 25×10^6 cells/ml in serum-free medium.
CALU-6 cells 5×10^6 cells/mouse in 200 μl of serum-free medium) were then implanted subcutaneously in the right flank of each mouse.
At D12 post-implantation of the CALU-6 cells, the thirty mice were randomized into six groups of 5 mice. Tumor volumes had reached 228 to 468 mm^3 and mean tumor volumes were not statistically different between groups after randomization.
Mean tumor volumes (MTV), mean relative tumor volume (MRTV) and tumor growth inhibition (T/C) were calculated as for example 7.

HUVEC cells = test: Inhibition of endothelial cell proliferation in vitro (MTT); format: cell-based, human
Procedure: HUVEC cells were cultured to confluency in complete EGM2-MV medium (Cambrex) at 37° C. and in 5% CO2 humidified atmosphere. Cells were then collected by trypsine-EDTA digestion (Versene, Eurobio). After 5 min, the enzymatic reaction was stopped by adding 3 ml of the culture medium containing 5% FCS. Cells were then centrifuged at 220 g for 10 min at room temperature, washed twice with 5 ml of culture medium, suspended in complete culture medium, counted and adjusted to 50 000 cells/ml. One hundred μL per well were then distributed to a 96-well cell culture grade micro-plate (5 000 cells/well) and incubated with different concentrations of the purified protein 497C-T2 in Tris-HCl 20 mM buffer (pH 8), containing 150 mM NaCl and urea 2M; this buffer was used as control.
After 42 hrs at 37° C., cell proliferation was measured using thiazolyl blue tetrazolium bromide (MTT) method. Briefly, MTT (Sigma) was dissolved in PBS at 5 mg/ml, the solution was filtered (0.22 μm) and 10 μl were added to each well of the 96-well micro-plates. After 3 hrs of incubation at 37° C., 5% CO2 humidified atmosphere, the micro-plates were centrifuged at 220×g for 10 min, the supernatant was discarded, and the crystals dissolved by the addition of 100 μl of DMSO to each well. The optical density (OD) at 570 nm was then measured using μQuant micro-plate reader (Bio-Tek Instrument gmbh, Colmar, France) coupled to the KC4 (Bio-Tek) software.

[1] = IP Q2DX8, CDDP 5 mg/kg (G2), 497C-T2 10 mg/kg (G3), 497C-T2 10 mg/kg + CDDP 5 mg/kg (G4)

B1: 497C-T2: entire LEL domain of protein 497C, SEQ ID NO:3 (112 amino acids); as produced SEQ ID NO:8, with N-terminal His-Tag and C-terminal tail, 24 kD (protein, listed as Homo sapiens)
chain: MHHHHHHSSGLVPRGSGMKETAAAKFERQHMDSPDLGTDDDDKISGFVFRHEIKDTFLRTYTDAMQTYNGNDERSRAVDHVQRSLSCCGVQNYTNWSTSPYFLEHGIPPSCCMNETDCNPQDLHNLTVAATKVNQKGCYDLVTSFMETNMGIIAGDRASPQPWRYRIRILAPSTSLRPHSSTTTTTTXIRLLTKPERKLSWLLPPLSNN
modifications: X: residue not identified in the source
Q: Which results are given for B1?
A: anti-proliferative effect (tumor cell line NCI-H460): without any detectable anti-proliferative effect; anti-angiogenic activity, capillary tube formation (HUVEC; 497C-T2 0.27-2 μM, 497C-T3 […], 497C-T4 3.18 μM, 497C-T5 3.35 μM, C-terminal tail 4.14 μM): inhibited in vitro angiogenesis in a dose-dependent manner; inhibition of in vitro angiogenesis (HUVEC; at 270 nM): small inhibition; inhibition of in vitro angiogenesis (HUVEC; at 540 nM): more than 50%; potency relative to anti-VEGF mAb and/or VEGF receptor (KDR)-based peptides (HUVEC; comparison with literature (Binetruy-Tournaire 2000)): at least 200 fold; IC50 (HUVEC; dose-response study, read-out: IC50, inhibition of in vitro angiogenesis): < 540 nM; anti-tumoral activity (CALU-6 tumors; CALU-6, monotherapy (G3) or combined with CDDP (G4)): slight anti-tumoral activity; Growth inhibition based on T/C ratio, T/C ratio (%) D14 (CALU-6 tumors; [1]): 10%; Growth inhibition based on T/C ratio, T/C ratio (%) D16 (CALU-6 tumors; [1]): 33%; Growth inhibition based on T/C ratio, T/C ratio (%) D18 (CALU-6 tumors; [1]): 7%; Growth inhibition based on T/C ratio, T/C ratio (%) D20 (CALU-6 tumors; [1]): 13%; Growth inhibition based on T/C ratio, T/C ratio (%) D22 (CALU-6 tumors; [1]): 26%; Growth inhibition based on T/C ratio, T/C ratio (%) D24 (CALU-6 tumors; [1]): 24%; Growth inhibition based on T/C ratio, T/C ratio (%) D26 (CALU-6 tumors; [1]): 39%; Growth inhibition based on T/C ratio, T/C ratio (%) D28 (CALU-6 tumors; [1]): 27%; MRTV D14 (CALU-6 tumors; [1]): 1.64; MRTV D16 (CALU-6 tumors; [1]): 2.11; MRTV D18 (CALU-6 tumors; [1]): 2.34; MRTV D20 (CALU-6 tumors; [1]): 3.22; MRTV D22 (CALU-6 tumors; [1]): 3.09; MRTV D24 (CALU-6 tumors; [1]): 4.31; MRTV D26 (CALU-6 tumors; [1]): 4.60; MRTV D28 (CALU-6 tumors; [1]): 6.02; MRTV D12 (CALU-6 tumors; reference day, IP Q2DX8, CDDP 5 mg/kg (G2), 497C-T2 10 mg/kg (G3), 497C-T2 10 mg/kg + CDDP 5 mg/kg (G4)): 1; concentration significantly inhibiting human endothelial cell proliferation (as low as) (HUVEC cells): 500 nM; % inhibition of endothelial cell proliferation (HUVEC cells; 5 μM (122 μg) 497C-T2, 42 hrs, relative to control, 5 µM): 77% and 75%; inhibition of human endothelial cell proliferation (HUVEC cells; increasing concentrations, FIG. 1): inhibited human endothelial cell proliferation in a dose dependent manner
